Laboratory results from article PMC6648351 (Nucleic Acids Research, 2019).

Target: the molecule itself
Assay: SEC

Protein	stoichiometry N
gp577 mutant D92A (enzyme, Acanthamoeba polyphaga mimivirus, UniProt A0A0G2YDL0 1-470, looked up) MAEDKIEAYNKSITRTKYFKMDDAINSPICSKTVFIIANERITKENRIGRYYTVFPSFKKFLKKRDSYPHCHEIIIDHINNKTNIAGRLVFAFDIKITDSSILKDTGLIDKNDNQPIMFNSKTLSITKIPLNFKQQIENTIIETIDQYFHDIDKTILEFIWSTSQNPNKFSKHLTVKNLYFDDWITMSKLFYKLFCKVWDNQYYWISSKDLVDSQIVRNKGSLRMVGSTKINGYPLVFDNKNHTLPDSLIRIYFRNHREKEQLVTRNNINKDIINQFLESNDDIEHHRSIDIIDRHFTKIRNPSYDPIIYQKAFEIYDAIHPNIFKMGKVNGKYLTLIRLKPHKCFLSNKFHEQENAYLYISMSDTTYKISFGCYRFCSKKKMEYLGSLIQGNLMKNSPYIDDTDGTTKKHDFNINIKFLSDSDDESINAPNNIKSLESIKSSKSKKQLKSSKSKKPIKHTKTKNIYVET	2
gp577 mutant D239A (enzyme, Acanthamoeba polyphaga mimivirus, UniProt A0A0G2YDL0 1-470, looked up) MAEDKIEAYNKSITRTKYFKMDDAINSPICSKTVFIIANERITKENRIGRYYTVFPSFKKFLKKRDSYPHCHEIIIDHINNKTNIAGRLVFDFDIKITDSSILKDTGLIDKNDNQPIMFNSKTLSITKIPLNFKQQIENTIIETIDQYFHDIDKTILEFIWSTSQNPNKFSKHLTVKNLYFDDWITMSKLFYKLFCKVWDNQYYWISSKDLVDSQIVRNKGSLRMVGSTKINGYPLVFANKNHTLPDSLIRIYFRNHREKEQLVTRNNINKDIINQFLESNDDIEHHRSIDIIDRHFTKIRNPSYDPIIYQKAFEIYDAIHPNIFKMGKVNGKYLTLIRLKPHKCFLSNKFHEQENAYLYISMSDTTYKISFGCYRFCSKKKMEYLGSLIQGNLMKNSPYIDDTDGTTKKHDFNINIKFLSDSDDESINAPNNIKSLESIKSSKSKKQLKSSKSKKPIKHTKTKNIYVET	2
gp577 mutant D151A (enzyme, Acanthamoeba polyphaga mimivirus, UniProt A0A0G2YDL0 1-470, looked up) MAEDKIEAYNKSITRTKYFKMDDAINSPICSKTVFIIANERITKENRIGRYYTVFPSFKKFLKKRDSYPHCHEIIIDHINNKTNIAGRLVFDFDIKITDSSILKDTGLIDKNDNQPIMFNSKTLSITKIPLNFKQQIENTIIETIDQYFHAIDKTILEFIWSTSQNPNKFSKHLTVKNLYFDDWITMSKLFYKLFCKVWDNQYYWISSKDLVDSQIVRNKGSLRMVGSTKINGYPLVFDNKNHTLPDSLIRIYFRNHREKEQLVTRNNINKDIINQFLESNDDIEHHRSIDIIDRHFTKIRNPSYDPIIYQKAFEIYDAIHPNIFKMGKVNGKYLTLIRLKPHKCFLSNKFHEQENAYLYISMSDTTYKISFGCYRFCSKKKMEYLGSLIQGNLMKNSPYIDDTDGTTKKHDFNINIKFLSDSDDESINAPNNIKSLESIKSSKSKKQLKSSKSKKPIKHTKTKNIYVET	2
gp577 mutant D213A (enzyme, Acanthamoeba polyphaga mimivirus, UniProt A0A0G2YDL0 1-470, looked up) MAEDKIEAYNKSITRTKYFKMDDAINSPICSKTVFIIANERITKENRIGRYYTVFPSFKKFLKKRDSYPHCHEIIIDHINNKTNIAGRLVFDFDIKITDSSILKDTGLIDKNDNQPIMFNSKTLSITKIPLNFKQQIENTIIETIDQYFHDIDKTILEFIWSTSQNPNKFSKHLTVKNLYFDDWITMSKLFYKLFCKVWDNQYYWISSKDLVASQIVRNKGSLRMVGSTKINGYPLVFDNKNHTLPDSLIRIYFRNHREKEQLVTRNNINKDIINQFLESNDDIEHHRSIDIIDRHFTKIRNPSYDPIIYQKAFEIYDAIHPNIFKMGKVNGKYLTLIRLKPHKCFLSNKFHEQENAYLYISMSDTTYKISFGCYRFCSKKKMEYLGSLIQGNLMKNSPYIDDTDGTTKKHDFNINIKFLSDSDDESINAPNNIKSLESIKSSKSKKQLKSSKSKKPIKHTKTKNIYVET	2
gp577 mutant H173A (enzyme, Acanthamoeba polyphaga mimivirus, UniProt A0A0G2YDL0 1-470, looked up) MAEDKIEAYNKSITRTKYFKMDDAINSPICSKTVFIIANERITKENRIGRYYTVFPSFKKFLKKRDSYPHCHEIIIDHINNKTNIAGRLVFDFDIKITDSSILKDTGLIDKNDNQPIMFNSKTLSITKIPLNFKQQIENTIIETIDQYFHDIDKTILEFIWSTSQNPNKFSKALTVKNLYFDDWITMSKLFYKLFCKVWDNQYYWISSKDLVDSQIVRNKGSLRMVGSTKINGYPLVFDNKNHTLPDSLIRIYFRNHREKEQLVTRNNINKDIINQFLESNDDIEHHRSIDIIDRHFTKIRNPSYDPIIYQKAFEIYDAIHPNIFKMGKVNGKYLTLIRLKPHKCFLSNKFHEQENAYLYISMSDTTYKISFGCYRFCSKKKMEYLGSLIQGNLMKNSPYIDDTDGTTKKHDFNINIKFLSDSDDESINAPNNIKSLESIKSSKSKKQLKSSKSKKPIKHTKTKNIYVET	2
